According to patent US20100303821A1 (GlaxoSmithKline, published 2010):

Legend:
cyno IL-13 = biological target: T1, cyno IL-13 (cynomolgus, UniProt Q0PW92 21-132); assay: SPR Biacore T100; captured on Protein A (CM5), cyno IL13 analyte; 'Impossible off-rates', beyond sensitivity
T1 construct: also called cynomolgus IL-13
Experimental: (§1) All binding curves were double referenced with a OnM injection (i.e. buffer alone).
(§2) Regeneration of the Protein A surface was with 50 mM NaOH. The assay was run at 25° C. using HBS-EP as running buffer. The data was fitted to 1:1 model inherent to the Biacore T100 analysis software.

human IL-13 [1] = biological target: T2, human IL-13 (human, UniProt P35225 35-146); assay: cell-based or functional assay
T2 sequence (P35225 other isoform, or with tags, fused parts or gaps limits assumed): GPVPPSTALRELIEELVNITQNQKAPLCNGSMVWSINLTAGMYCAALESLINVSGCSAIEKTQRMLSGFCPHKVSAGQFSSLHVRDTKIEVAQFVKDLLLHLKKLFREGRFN

human IL-13 [2] = biological target: T2, human IL-13; assay: cell-based or functional assay; remark: listed apart in the source
human IL-4 [3] = biological target: T3, human IL-4 (human, UniProt P05112 25-153); assay: SPR Biacore T100; mAbdAb captured on Protein A (CM5), human IL4 analyte
T3 construct: also called recombinant E. coli-expressed human IL-4
T3 sequence (looked up): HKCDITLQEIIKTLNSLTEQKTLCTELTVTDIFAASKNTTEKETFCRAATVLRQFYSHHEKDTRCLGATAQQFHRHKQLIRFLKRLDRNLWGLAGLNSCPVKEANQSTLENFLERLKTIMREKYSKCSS
Experimental: as §1, §2

human IL-4 [4] = biological target: T3, human IL-4; assay: SPR Biacore T100; captured on Protein A (CM5), human IL4 analyte; footnote: on- and off-rate not measurable

T1 sequence (Q0PW92 entry or part of it): as the sequence (P35225 other isoform, or with tags, fused parts or gaps limits assumed) above, with G1S, R10K, M42V, S67N, H83R, L100V, R110Q counted along it

B1: BPC3214 (bispecific antibody, human IgG1, kappa)
heavy: not shown
light: DIQMTQSPSSLSASVGDRVTITCRSSQNIVHINGNTYLEWYQQKPGKAPKLLIYKISDRFSGVPSRFSGSGSGTDFTLTISSLQPEDFATYYCFQGSHVPWTFGQGTKLEIKRTVAAPSVFIFPPSDEQLKSGTASVVCLLNNFYPREAKVQWKVDNALQSGNSQESVTEQDSKDSTYSLSSTLTLSKADYEKHKVYACEVTHQGLSSPVTKSFNRGEC
Kd (cyno IL-13): 0.0158 nM
koff (cyno IL-13): 5.07e-06 s⁻¹

B2: A1L1 (antibody, human IgG1, kappa, V domains shown)
VH: QVQLVQSGAEVKKPGSSVKVSCKASGFYIKDTYMHWVRQAPGQGLEWMGTIDPANGNTKYVPKFQGRVTITADESTSTAYMELSSLRSEDTAVYYCARSIYDDYHYDDYYAMDYWGQGTLVTVSS
VL: DIVMTQSPLSLPVTPGEPASISCRSSQNIVHINGNTYLEWYLQKPGQSPRLLIYKISDRFSGVPDRFSGSGSGTDFTLKISRVEADDVGIYYCFQGSHVPWTFGQGTKLEIKR
ND50 human IL-13, TF-1 cell proliferation bioassay (human IL-13 [1]): 2.52 nM
Mean ND50, TF-1 cell proliferation bioassay (human IL-13 [2]): 5.01 nM

B3: BPC1086 (bispecific antibody, human IgG1, kappa)
heavy: not shown
light: DIVMTQSPLSLPVTPGEPASISCRSSQNIVHINGNTYLEWYLQKPGQSPRLLIYKISDRFSGVPDRFSGSGSGTDFTLKISRVEADDVGIYYCFQGSHVPWTFGQGTKLEIKRTVAAPSVFIFPPSDEQLKSGTASVVCLLNNFYPREAKVQWKVDNALQSGNSQESVTEQDSKDSTYSLSSTLTLSKADYEKHKVYACEVTHQGLSSPVTKSFNRGEC
Mean ND50, TF-1 cell proliferation bioassay (human IL-13 [2]): 1.01 nM

B4: BPC1093 (bispecific antibody, human IgG1, kappa)
heavy: not shown
light: DIVMTQSPLSLPVTPGEPASISCRSSQNIVHINGNTYLEWYLQKPGQSPRLLIYKISDRFSGVPDRFSGSGSGTDFTLKISRVEADDVGIYYCFQGSHVPWTFGQGTKLEIKRTVAAPSVFIFPPSDEQLKSGTASVVCLLNNFYPREAKVQWKVDNALQSGNSQESVTEQDSKDSTYSLSSTLTLSKADYEKHKVYACEVTHQGLSSPVTKSFNRGEC
notes: also called 829H-(TVAAPS)2GS-154 (89M)
Kd (human IL-4 [3]): 0.055 nM
koff (human IL-4 [3]): 0.000211 s⁻¹
kon (human IL-4 [3]): 3.84e+06 M⁻¹ s⁻¹

B5: BPC1112 (bispecific antibody, human IgG1, kappa)
heavy: not shown
light: DIVMTQSPLSLPVTPGEPASISCRSSQNIVHINGNTYLEWYLQKPGQSPRLLIYKISDRFSGVPDRFSGSGSGTDFTLKISRVEADDVGIYYCFQGSHVPWTFGQGTKLEIKRTVAAPSVFIFPPSDEQLKSGTASVVCLLNNFYPREAKVQWKVDNALQSGNSQESVTEQDSKDSTYSLSSTLTLSKADYEKHKVYACEVTHQGLSSPVTKSFNRGEC
notes: also called 829H-(TVAAPS)2GS-154 (89K)
kon (human IL-4 [4]): 1.14e+08 M⁻¹ s⁻¹
